Experimental data as given in publication PMC4643051.

What was measured:
[1] = target: NS1^HA mutant S114A (Dengue virus type 2 (DENV-2), strain 16681); test: co-IP
[2] = target: NS1^HA mutant W115A (Dengue virus type 2 (DENV-2), strain 16681); test: co-IP

“Envelope protein (E) of Dengue virus (from UniProt P29990) (natural protein)” gave a fold reduction of co-precipitated Envelope against wild-type NS1^HA [1] of 7.5 fold and a fold reduction of co-precipitated Envelope against wild-type NS1^HA [2] of 3.8 fold.
